In PMC5561129:

Target: full-length 3xflag-LRRK1 (leucine-rich repeat kinase 1) (human) (UniProt Q38SD2)
Experiment: cryo-EM structure; single particle cryo-EM of purified 3xflag-LRRK1 eluted in Tris buffer at pH 7.4 with 0.02% Triton X-100; thin carbon film on Quantifoil grids; EMAN2 2D classes and 3D reconstruction

full-length 3xflag-LRRK1 (leucine-rich repeat kinase 1), Q38SD2 1-2015
stoichiometry N: 2
